Square brackets hold non-standard residues; d marks the D form. Ends that are not written are not given here. * marks the point of attachment. MTSL = spin label, CC1(C)C=C(CS*)C(C)(C)N1[O]; pS = N[C@@H](COP(=O)(O)O)C(=O)O
T1: fluorescent-tagged His-tagged occludin 413–522 (human, UniProt Q16625 413-522, fluorescent label from the MonolithNT His-Tag Labeling Kit (NanoTemper))
T1 sequence (looked up): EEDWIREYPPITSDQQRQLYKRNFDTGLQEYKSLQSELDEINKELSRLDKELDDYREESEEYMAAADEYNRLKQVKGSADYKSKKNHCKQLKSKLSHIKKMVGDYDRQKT

T2: occludin 413–522 α-helical bundle (NMR construct with the N-terminal extension GPLGS) (human, UniProt Q16625 413-522)
T2 sequence: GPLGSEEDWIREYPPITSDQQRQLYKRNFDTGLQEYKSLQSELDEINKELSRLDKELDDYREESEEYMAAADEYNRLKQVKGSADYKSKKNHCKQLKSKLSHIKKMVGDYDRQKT


Columns and labels:
[1] = target: T1, fluorescent-tagged His-tagged occludin …; assay: MST
[2] = target: T2, occludin 413–522 α-helical bundle (NMR …); assay: NMR paramagnetic relaxation enhancement

Kd [1] [µM] | binding result [2] | Binder
37 ± 15 | – | AKGRAGRSKRTEQDHYETDYTTGGE[pS]CDEL [synthetic occludin 383–412 peptide phosphorylated at S408]
175 ± 27 | – | AKGRAGRSKRTEQDHYETDYTTGGESCDEL [synthetic occludin 383–412 peptide, nonphosphorylated]
– | binds | AKGRAGRSKRTEQDHYETDYTTGGEDC(MTSL)DEL (peptide, UniProt Q16625 383-412, looked up) [occludin 383–412^S408D unstructured region peptide, MTSL-labelled at C409]
– | binds | AKGRAGRSKRTEQDHYETDYTTGGEAC(MTSL)DEL (peptide, UniProt Q16625 383-412, looked up) [occludin 383–412^S408A unstructured region peptide, MTSL-labelled at C409]
